The values that follow come from PMC3500560 (The Journal of neuroscience : the official journal of the …, 2011).

The data set “SEC-MALS” concerns the molecule itself. Kind of data set: SEC-MALS.
The data set “cross-linking” concerns the molecule itself. The experiment in a line: cross-linking.

B1: MBP-LH1 fusion protein (domain or fragment)
chain: not shown
Take B1: in the data set “SEC-MALS”, the “stoichiometry N” value is 2.

B2: His6-tagged SYD-2LH1 (domain or fragment)
chain: not shown
For the protein B2, the “stoichiometry N” value in the data set “cross-linking” amounted to 2.
